First the molecules themselves.
B1: AfPOD (Alcaligenes faecalis) (protein)
chain: MDTPLRDKSYFDERATKEMATHLQQVQRDTRETMAFACRILAMTEQEAGLAGQISVRSERPGAYWTLRFGLGFDEATPEDFIEVDRDLNTLSGEGMANPATRFHLWVYEARPDVNSIIHTHSPWATVLATARQPLVISQMDMTPLHNDCAFLGEWPGVPIADQEGVIISKALGDKRAIILAHHGYLTAGKSCQEATYLSVYLERAARLQVRAQAAFGPLTPVDDTLAAEAHDYLLKPSIVNATFDYWSRQTQGIAPLTKTR

Usually Km stands for the substrate concentration at which the rate is half of its maximum. A word on the kcat: it is the number of substrate molecules converted per active site and unit of time at saturation. In general, kcat/Km refers to the turnover number divided by the Michaelis constant.

The first data set has as its system T1, CC(=NO)C(=O)O.
T1 construct: full length, 261 residues (Met1-Arg261); recombinant in E. coli; variants with C-terminal His6-tag, WT by two untagged chromatographic steps; homotetramer, Fe(II)-dependent
The data set is described as follows: nitrite production, diazo-coupling spectrophotometry. As to conditions: 20 mM Tris-HCl pH 8.0, 1.0 mM sodium ascorbate, 100 µM FeSO4, O2 as co-substrate. The class given is biochemical, Alcaligenes faecalis. The source says: (§1) nitrite production, diazo-coupling spectrophotometry on AfPOD
AfPOD (Alcaligenes faecalis; H104A): the Km came out at 170 ± 37 µM, the kcat is 0.21 ± 0.013 s⁻¹ and the kcat/Km worked out at 1200 M⁻¹ s⁻¹.

Take AfPOD (Alcaligenes faecalis; Q53A): the Km came out at 96 ± 18 µM, the kcat amounted to 0.162 ± 0.008 s⁻¹ and the specificity constant (kcat/Km) came to 1700 M⁻¹ s⁻¹.

On to AfPOD (Alcaligenes faecalis; K8E), for which the Km is 68766 ± 20299 µM, the kcat was found to be 0.632 ± 0.066 s⁻¹ and the kcat/Km was 9.2 M⁻¹ s⁻¹.

With AfPOD (Alcaligenes faecalis; E229K), the Km amounted to 2150 ± 172 µM, the kcat was 4.58 ± 0.098 s⁻¹ and the kcat/Km was 2100 M⁻¹ s⁻¹.

On to AfPOD (Alcaligenes faecalis; E229K/K8E), for which the Km turned out to be 2538 ± 568 µM, the kcat turned out to be 1.76 ± 0.109 s⁻¹ and the kcat/Km is 690 M⁻¹ s⁻¹.

As for AfPOD (Alcaligenes faecalis; E164A), the Km was 943 ± 240 µM, the kcat was found to be 0.27 ± 0.02 s⁻¹ and the kcat/Km was found to be 290 M⁻¹ s⁻¹.

Take AfPOD (Alcaligenes faecalis; F103A): the Km came out at 89 ± 22 µM, the kcat worked out at 0.008 ± 0.001 s⁻¹ and the kcat/Km came out at 90 M⁻¹ s⁻¹.

Turning to AfPOD (Alcaligenes faecalis; F69A), the Km was 41509 ± 9984 µM, the kcat was found to be 0.246 ± 0.018 s⁻¹ and the kcat/Km amounted to 5.9 M⁻¹ s⁻¹.

As to AfPOD (Alcaligenes faecalis; Y233A), the Km was 42247 ± 16705 µM, the kcat is 0.012 ± 0.001 s⁻¹ and the specificity constant (kcat/Km) was determined as 0.3 M⁻¹ s⁻¹.

Substrate in a further data set: CC(=NO)C(=O)O
Described as above. The class given is biochemical, Alcaligenes faecalis. The conditions noted are these: 20 mM Tris-HCl pH 8.0, 1.0 mM sodium ascorbate, 100 µM FeSO4, O2 as co-substrate.
From the text: as §1
In the case of B1, the Km stood at 622 ± 83 µM, the turnover number (kcat) came out at 4.8 ± 0.169 s⁻¹ and the kcat/Km came out at 7700 M⁻¹ s⁻¹.
